Results published in patent publication US20250353921A1 (ASTRIA THERAPEUTICS, published 2025).
Positions count from the first letter of the chain named. In names and notes the source's numbering stands.

Experiments:
[1] = molecular target: T1, human OX40 (TNFRSF4, CD134) on cells (human, UniProt P43489 29-277); assay: cell-based or functional assay
T1 sequence: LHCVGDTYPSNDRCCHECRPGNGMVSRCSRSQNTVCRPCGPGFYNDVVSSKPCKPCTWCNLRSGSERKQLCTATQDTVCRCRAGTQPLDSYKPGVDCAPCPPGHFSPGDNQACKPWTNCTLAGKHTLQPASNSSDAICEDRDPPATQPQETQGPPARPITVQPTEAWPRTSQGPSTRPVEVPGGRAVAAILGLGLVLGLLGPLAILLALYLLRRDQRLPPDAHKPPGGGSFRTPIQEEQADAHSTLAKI

[2] = molecular target: T1, human OX40 (TNFRSF4, CD134) on cells; assay: cell-based or functional assay; remark: listed apart in the source
[3] = molecular target: Human CD64 (FcγRI), Sino Biological 10256-H08H (human, UniProt P12314 16-288); assay: SPR Biacore 8K+, receptor captured by anti-His, antibody as analyte
Sequence of Human CD64 (FcγRI), Sino Biological 10256-H08H (P12314 16-288 limits assumed): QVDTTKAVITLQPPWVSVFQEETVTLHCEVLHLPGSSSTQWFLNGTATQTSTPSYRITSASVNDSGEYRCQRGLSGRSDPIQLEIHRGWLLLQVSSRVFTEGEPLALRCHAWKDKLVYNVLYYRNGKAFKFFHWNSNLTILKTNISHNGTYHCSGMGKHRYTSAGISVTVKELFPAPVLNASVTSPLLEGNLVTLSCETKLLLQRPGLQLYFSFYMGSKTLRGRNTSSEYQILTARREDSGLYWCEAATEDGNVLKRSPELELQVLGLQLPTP
Procedure: (§1) Measurements were performed on a Biacore 8K+ instrument (Cytiva Life Sciences) using the Biacore 8K+ Control Software and analyzed with the Biacore Insight Evaluation Software (v3.0). […] After each binding event, baseline levels were restored using a regeneration solution on both flow-paths. HBS-EP+pH 7.4 solution were used as running buffer. Data was analyzed using the MCK evaluation method of the Biacore Insight Evaluation Software and kinetic parameters were determined using the 1:1 binding and steady-state affinity methods.
(§2) Each measurement is the mean of three identical replicate conditions.

[4] = molecular target: T2, Human CD32b, Sino Biological 10259-H08H (human, UniProt P31994 43-217); assay: as above
T2 construct: also called FcγRIIb
T2 sequence (looked up): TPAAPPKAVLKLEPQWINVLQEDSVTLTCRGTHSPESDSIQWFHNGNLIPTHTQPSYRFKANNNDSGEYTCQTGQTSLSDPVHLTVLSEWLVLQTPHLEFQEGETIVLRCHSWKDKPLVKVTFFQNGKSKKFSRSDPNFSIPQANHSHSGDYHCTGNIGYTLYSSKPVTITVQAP
Procedure: as §1, §2

[5] = molecular target: T3, Human CD16a (F176V), Sino Biological 10389-H08H1 (human, UniProt P08637 17-208); assay: as above
T3 construct: also called FcγRIIIa176V
T3 sequence (P08637 17-208 F176V limits assumed): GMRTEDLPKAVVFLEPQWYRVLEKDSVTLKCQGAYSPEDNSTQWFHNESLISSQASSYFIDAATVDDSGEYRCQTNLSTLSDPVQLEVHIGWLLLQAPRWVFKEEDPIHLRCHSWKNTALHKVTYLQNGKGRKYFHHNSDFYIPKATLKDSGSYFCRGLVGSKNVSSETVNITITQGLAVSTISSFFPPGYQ
Procedure: as §1, §2

[6] = molecular target: T4, Human CD32a (167 His), Sino Biological 10374-H08H1 (human, UniProt P12318 34-218); assay: as above
T4 construct: also called FcγRIIa167H
T4 sequence (looked up): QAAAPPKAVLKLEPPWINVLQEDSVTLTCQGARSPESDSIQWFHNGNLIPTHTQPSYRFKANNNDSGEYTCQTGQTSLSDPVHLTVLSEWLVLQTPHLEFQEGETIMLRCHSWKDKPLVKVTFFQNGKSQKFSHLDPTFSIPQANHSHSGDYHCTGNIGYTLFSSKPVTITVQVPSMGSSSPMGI
Procedure: as §1, §2

[7] = molecular target: T5, Human CD16b (NA2 allotype), Sino Biological 11046-H08H (human, UniProt O75015 17-200); assay: as above
T5 construct: also called FcγRIIIb
T5 sequence (O75015 17-200 N65S limits assumed): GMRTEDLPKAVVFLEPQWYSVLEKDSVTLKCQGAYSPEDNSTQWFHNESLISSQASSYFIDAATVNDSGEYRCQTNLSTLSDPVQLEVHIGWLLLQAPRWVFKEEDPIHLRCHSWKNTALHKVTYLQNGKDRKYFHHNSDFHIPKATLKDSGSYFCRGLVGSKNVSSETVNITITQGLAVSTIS
Procedure: as §1, §2

[8] = molecular target: T6, Human CD32a (167 Arg), Sino Biological 10374-H08H (human, UniProt P12318 34-218); assay: as above
T6 construct: also called FcγRIIa167R
T6 sequence (looked up): T4 sequence (looked up) with H134R
Procedure: as §1, §2

[9] = molecular target: T7, Human CD16a (176F), Sino Biological 10389-H08H (human, UniProt P08637 17-208); assay: as above
T7 construct: also called FcγRIIIa176F
T7 sequence (P08637 17-208 limits assumed): as the sequence (P08637 17-208 F176V limits assumed) above, with V160F counted along it
Procedure: as §1, §2

[10] = molecular target: T1, human OX40 (TNFRSF4, CD134) on cells; assay: flow cytometry on Jurkat-NFκB (OX40) cells, detection with anti-human IgG Fc-AF647
[11] = molecular target: T8, human OX40-ECD-his (human, UniProt P43489 29-214); assay: ELISA, scFv supernatant on coated human OX40-ECD-his, anti-c-myc detection
T8 construct: whole entry named
T8 sequence: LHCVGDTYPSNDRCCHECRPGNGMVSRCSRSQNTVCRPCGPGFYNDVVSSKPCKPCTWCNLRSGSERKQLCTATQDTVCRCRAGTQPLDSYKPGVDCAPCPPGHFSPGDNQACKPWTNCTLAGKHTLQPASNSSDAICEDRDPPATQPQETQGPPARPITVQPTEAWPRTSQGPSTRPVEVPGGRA
Procedure: The binding of scFv clones was assessed by ELISA. Individual E. coli colonies from the second round of selection were picked and grown in 2YT ampicillin medium (96-well deep well plates). ScFv expression was induced by addition of 1 mM of IPTG and incubation ON at 30° C. and 250 RPM. Cells were centrifuged and culture supernatant were used for screening. RIA/EIA plates were coated with either 200 ng/well of human OX40-ECD-his or cynomolgus OX40-ECD-Fc. In order to discriminate potential antibodies selected against the Fc fragment, a plate was also coated with an irrelevant Fc fused antigen. The plates were then blocked with PBS supplemented with 3% Bovine Serum Albumin (BSA). 80 μL of bacteria culture supernatants were then mixed with 20 μl of 3% BSA and added to the blocked plates for 1 hr at room temperature. Bound scFvs were detected using a biotinylated chicken anti-c-myc antibody diluted 1:5000 in PBS-0.3% BSA incubated for 1 hr at RT, followed by staining with the Pierce High Sensitivity Streptavidin-HRP reagent diluted 1:8000 in PBS-0.3% BSA for 30 min at RT. Plates were extensively washed using PBS supplemented with 0.05% Tween 20 between each incubation step. […] Clones that bound specifically to both human and cynomolgus OX40 but not to irrelevant antigen-Fc fusion protein were DNA sequenced.

B1: OX40L (recombinant human OX40 ligand) (ligand, UniProt P23510 51-183, looked up)
chain: QVSHRYPRIQSIKVQFTEYKKEKGFILTSQKEDEIMKVQNNSVIINCDGFYLISLKGYFSQEVNISLHYQKDEEPLFQLKKVRSVNSLMVASLTYKDKVYLNVTTDNTSLDDFHVNGGELILIHQNPGEFCVL
luminescence, Jurkat-NFκB-OX40 agonism assay [1]: 8 fold
average proliferation index (Av), coated T cell agonism assay [2]: 5.61

B2: MAB11 (antibody, human IgG1, kappa)
heavy: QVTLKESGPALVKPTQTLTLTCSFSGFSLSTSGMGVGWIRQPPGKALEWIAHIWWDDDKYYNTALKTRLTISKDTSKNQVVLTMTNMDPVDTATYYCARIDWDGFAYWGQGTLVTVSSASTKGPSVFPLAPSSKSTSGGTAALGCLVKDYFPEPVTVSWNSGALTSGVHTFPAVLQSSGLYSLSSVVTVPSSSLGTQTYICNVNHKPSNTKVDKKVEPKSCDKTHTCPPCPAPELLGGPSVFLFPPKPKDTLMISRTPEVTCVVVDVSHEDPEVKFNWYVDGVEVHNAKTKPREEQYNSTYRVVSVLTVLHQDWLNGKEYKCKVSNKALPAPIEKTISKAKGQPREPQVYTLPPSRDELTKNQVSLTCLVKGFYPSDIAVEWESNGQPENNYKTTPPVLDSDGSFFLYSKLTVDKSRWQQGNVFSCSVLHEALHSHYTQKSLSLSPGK
light: EIVLTQSPATLSLSPGERATLSCRASSSVSYMHWYQQKPGQAPRPWIYATSNRATGIPARFSGSGSGTDYTLTISSLEPEDFAVYYCQQFGAWPWTFGQGTKVEIKRTVAAPSVFIFPPSDEQLKSGTASVVCLLNNFYPREAKVQWKVDNALQSGNSQESVTEQDSKDSTYSLSSTLTLSKADYEKHKVYACEVTHQGLSSPVTKSFNRGEC
notes: IgG1 with M428L and N434S; also called MAB1 Heavy Chain + LS
Kd [3]: 6.3 nM
Kd [4]: 9880 nM
Kd [5]: 221 nM
Kd [6]: 3380 nM
Kd [7]: 2740 nM
Kd [8]: 5430 nM
Kd [9]: 246 nM

B3: OX40L (P865) (Fc fusion, human, UniProt P23510 51-183, looked up)
OX40L-Fc chain: B1 chain
notes: the sheet prints OX40L (P865) in the legend box and OX40L (P685) beside the curve; also called OX40L-Fc; OX40L (P685)
EC50 (read off the curve) [10]: ~0.2 µg/mL

B4: MAB8 scFv clone (scFv)
scFv: QVTLKESGPALVKPTQTLTLTCSFSGFSLSTSGMGVGWIRQPPGKALEWIAHIWWDDDKYYNTALKTRLTISKDTSKNQVVLTMTNMDPVDTATYYCARIDWDGFAYWGQGTLVTVSSGGGGSGGGGSGGGGSEIVLTQSPATLSLSPGERATLSCRASSSVSYMHWYQQKPGQAPRPWIYATSNRATGIPARFSGSGSGTDYTLTISSLEPEDFAVYYCQQTVAWPWTFGQGTKVEIK
binding result [11]: binds

B5: MAB1 scFv clone (scFv)
scFv: B4 scFv with T223F, V224G
notes: Phage library scFv in bacterial culture supernatant
binding result [11]: binds

B6: MAB2 scFv clone (scFv)
scFv: B4 scFv with T223F, V224G, A225D, W226P
binding result [11]: binds

B7: MAB3 scFv clone (scFv)
scFv: B4 scFv with V224I, A225E
binding result [11]: binds

B8: MAB4 scFv clone (scFv)
scFv: B4 scFv with V224L, A225L, W226F
binding result [11]: binds

B9: MAB5 scFv clone (scFv)
scFv: B4 scFv with V224L, A225H, W226Y
binding result [11]: binds

B10: MAB6 scFv clone (scFv)
scFv: B4 scFv with T223W, V224E, A225T
binding result [11]: binds

B11: MAB7 scFv clone (scFv)
scFv: B4 scFv with T223M, V224E, A225F, W226T
binding result [11]: binds

B12: MAB9 scFv clone (scFv)
scFv: B4 scFv with Q222A, T223A, V224S, A225S, W226S, P227S, W228L, T229E
binding result [11]: binds
